We go through 3 substances from patent publication US8119572B2, “Methods for determining protein binding specificity using peptide libraries” (Wisconsin Alumni Research Foundation, priority 2005, dated 2012).

No end group written: not given here.

In the assay the target is T1, SIRT1 (Homo sapiens, UniProt Q96EB6).
T1 construct: made in house
T1 sequence (Q96EB6 1-747): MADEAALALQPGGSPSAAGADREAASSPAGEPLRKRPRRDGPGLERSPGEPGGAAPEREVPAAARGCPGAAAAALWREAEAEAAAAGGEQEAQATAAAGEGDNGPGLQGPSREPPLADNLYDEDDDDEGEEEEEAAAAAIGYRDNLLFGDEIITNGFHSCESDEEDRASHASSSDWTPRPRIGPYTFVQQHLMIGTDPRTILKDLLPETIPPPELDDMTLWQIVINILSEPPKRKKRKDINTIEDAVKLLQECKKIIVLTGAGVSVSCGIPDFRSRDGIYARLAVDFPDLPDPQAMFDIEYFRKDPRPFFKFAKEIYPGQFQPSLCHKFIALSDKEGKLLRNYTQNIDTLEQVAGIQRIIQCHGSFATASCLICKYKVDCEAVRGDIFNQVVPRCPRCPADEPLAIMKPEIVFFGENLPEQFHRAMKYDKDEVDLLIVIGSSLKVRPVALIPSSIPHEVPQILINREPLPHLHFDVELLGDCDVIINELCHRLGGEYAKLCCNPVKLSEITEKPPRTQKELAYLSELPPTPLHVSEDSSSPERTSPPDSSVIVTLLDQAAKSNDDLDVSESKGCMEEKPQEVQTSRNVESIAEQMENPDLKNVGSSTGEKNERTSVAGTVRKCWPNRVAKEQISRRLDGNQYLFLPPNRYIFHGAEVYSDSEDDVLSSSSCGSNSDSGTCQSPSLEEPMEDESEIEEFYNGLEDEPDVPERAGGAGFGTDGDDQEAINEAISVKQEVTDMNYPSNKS
Briefly: Radioactive TLC-based [32P]-NAD+ in-solution kinetic analysis of resynthesized hits and non-hits. Format: biochemical. As to conditions: for fold difference in catalytic activity in favor over WP(AcK)QQ: compared with WP(AcK)QQ, Table 3 values. The method, then: All solution phase Sir2 assays were carried out at 25° C. in 50 mM Tris.HCl. Reactions were done in 50-100 μL with 0.1-1.5 μM enzyme, 0.1-1.2 mM NAD^+, 0.5-1000 μM peptide and 1 mM DTT. Reaction mixtures were quenched with TFA to a final concentration of 1% after 5-10 min and nicotinamide levels were quantitated by HPLC at 264 nm.
Alternatively, [^32P]-NAD^+ (10 mCi/mL) was used in assays and quenched reaction mixtures were spotted on a silica TLC plate and run in a chamber containing 60% ethanol and 40 2.5 mM ammonium acetate for 3-4 hours. Levels of ^32P-OAADPr and ^32P-NAD^+ were then quantitated by phosphorimaging and the fraction turnover was calculated. Saturation curves were done at varying concentrations of peptide while holding that of NAD^+ constant. Time points were chosen such that product formation never exceeded 20% conversion and data were plotted as rate (s^−1) vs. peptide concentration. Plots were fitted to the Michaelis-Menten equation, v=[(kcat/Km)[S]]/(1+[S]/Km) using Kaleidagraph software (Reading, Pa.) to extract Km and kcat/Km.
To validate the results of the library screen, select hits and non-hits were resynthesized and subjected to in-solution kinetic analysis (Table 3). A radioactive TLC-based assay was employed with subsaturating levels of [^32P]-NAD^+ to determine the relative catalytic efficiencies (Jackson et al., 2003, J. Biol. Chem. 278: 50985-50998). In addition, two “consensus” peptides containing residues occurring with the highest and lowest frequency at each position, independent of context, were analyzed. For comparison, a 5-mer comprised of a sequence corresponding to a known site for p53 deacetylation by SIRT1 was assayed (Table 3).
In Table 3, efficiencies (^x=average) were obtained by fitting the data from [^32P]-NAD^+ assays to the modified Michaelis-Menten equation, v=[(kcat/Km)[S]]/(1+[S]/Km). […] Catalytic efficiencies of peptides containing the residues of the highest^b/lowest^c frequency at each position and the sequence relevant to p53 deacetylation in vivo^d are shown for comparison.

As to “QP(AcK)QI (Ac-QPK(Ac)QI) [resynthesized select hit of SIRT1 library screen]”, the “fold difference in catalytic activity in favor over WP(AcK)QQ” value came out at 18 fold. Same read-out and setting: in the case of WH(AcK)QQ (Ac-WHK(Ac)QQ) it was “seven”. With “AY(AcK)EV (Ac-AYK(Ac)EV) [resynthesized select non-hit]”, the “catalytic activity, comparison of hits and non-hits in words” value (in-solution kinetic analysis) is recorded as “comparable to those of a few of the hits”.
